We go through 21 sequences from the nanobody polyreactivity screen of Harvey et al. (2022).

This data set is described as follows: yeast display, Sf9 membrane polyspecificity reagent, FACS + sequencing; frameworks hold sequencing errors. A digest of the protocol:
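Nanobodies came from a synthetic yeast display library in Saccharomyces cerevisiae BJ5465, induced with galactose for 36–48 hours and stained for 1 hour at 4 °C with 10% biotinylated, detergent-solubilized Sf9 membrane reagent. Cells were enriched on streptavidin microbeads and then FACS-sorted, with low and high (top ~1%) gates set on anti-HA fluorescence for expression and streptavidin fluorescence for reagent binding. Each polyreactivity label reflects the gate a clone came from. Genes were amplified by colony PCR, sequenced by MiSeq 2 × 250 and filtered by CDR length.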
As to “QVQLVESGGGLVQAGGSLRLSCAASGFTYRYYTMGLYRQAPGKERELVAAINTSGAGTYYADSVKGRFTISRDNAKNTVYLQMNSLKPEDTAVYYCAATWYGLDYNYWGQGTQVTVSS”, the “polyreactivity (PSR sort gate)” value is given as “high polyreactivity”.

Regarding “QVQLVESGGGLVQAGGSLRLSCAASGFTFYPYAMGWYRQAPGKERELVASITSAGGTNYADSVKGRFTISRDNAKNTVYLQMNSLKPEDTAVYYCAAKYRSRGPDYYFKSDYWGQGTQVTVSS”, the “polyreactivity (PSR sort gate)” value is “low polyreactivity”.

For the sequence “QVHVVESGGGLVQAGGSLRLSCAASGRTFYGYAMGWYRQAPGKERELVAGITSGGNTNYADSVKGRFTISRDNAKNTVYLQMNSLKPEDTAVYYCAADRYSFRGDYYWGQGTQVTVSS”, the “polyreactivity (PSR sort gate)” value is given as “low polyreactivity”.

In the case of “QVQLVESGGGLVQAGGSLRLSCAASGLTLSGYAMGWYRQAPGKERELVAAISYTGGSTYYADSVKGRFTISRDNAKNTVYLQMNSLKPEDTAVYYCAARAGSRSFDYWGQGTQVTVSS”, the “polyreactivity (PSR sort gate)” value is given as “high polyreactivity”.

“QVQLVESGGGLVQAGGSLRLSCAASGSIFDWYAMGWYRQAPGKERELVAAIDSSGSSTYYADSVKGRFTISRDNAKNTVYLQMNSLKPEDTAVYYCAADSDWIRYWFGSLYGSDYWGQGTQVTVSS”: the “polyreactivity (PSR sort gate)” value is recorded as “low polyreactivity”.

On to “QVQLVESGGGLVQAGGSLRLSCAASGSIFSYYAMGWYRQAPGKERELVATISSVGSTNYADSVKGRFTISRDNPKNTVYLQMNSLKPEDTAVYYCAATIGHNGFDYWGQGTQVTVSS”, for which the “polyreactivity (PSR sort gate)” value is on record as “low polyreactivity”.

As for “QVQLVESGGCLVQAGGSLRLSCAASGSIFGTYTMGWYRQAPGKERELVATISNSGGNTYADSVKGRFTISRDNAKNTVNLQMNSLKPEDTAVYYCAVVGGEFSSYGYWGQGTQVTVSS”, the “polyreactivity (PSR sort gate)” value is “low polyreactivity”.

For “QVQLVESGGGLVQARGSLRLSCAASGSIFGYNVMGWYRQAPGIERELVAAITVNGGRTYYADSVKGRFTISRDNAKNTVYLQMNSLIPEDTAVDDCAARVTGTQRSGYYWGQGTQVTVSS”, the “polyreactivity (PSR sort gate)” value is on record as “high polyreactivity”.

For the sequence “QVQLVESGGGLVQAGGSLRLSCAASGRTFLRYAMGWYREAPGKERELVAAITYGGRTNFADSVKGRFTISRDNAKNTVYFQMNSLKPEDTAVYYCAADRTYYYGLRVDYWGQGTQVTVSS”, the “polyreactivity (PSR sort gate)” value is recorded as “high polyreactivity”.

As to “QVQLVESGGGLVHAGGSLRLSCAASGRTFYPNVMGWYRQAPGKERELVAAIRARGGSTYYADSVKGRFTISRDNAKNTVYLQMNSLKPEDTAVYYCARDTGDYLQFDYWGQGTQVTVSS”, the “polyreactivity (PSR sort gate)” value was “high polyreactivity”.

As to “QVQLVESGGGLVQAGGSLRLSCAASGSIFPGYAMAWYRQAPGKERELVAAISRSGGITYYADSVKGRFTISRDNAKNTVYLQMNSLKPEDTSVYYCAKTLPSNGHYDYWGQGTQVTVSS”, the “polyreactivity (PSR sort gate)” value is “low polyreactivity”.

Consider “QVQLVESGGGLVQAGGSLRISCAASGITFRRYGMGWYRQAPGKERELVATITSSVGSRTYYADSVKGRFTISRDNAKNTVYLQMNSLKPEDTAVYYCAADHRVYDSEYWGQGTQVTVSS”, for which the “polyreactivity (PSR sort gate)” value is given as “low polyreactivity”.

On to “QVQLVESGGGLVQAGGSLRLSCAASGSTFVKNAMGWYRQAPGKERELVAAIRSSGGSTYYADSVKGRFTISRDNAKNTVYLQMNSLKPEDTAVYYCNKVLQASRSKYYYWGQGTQVTVSS”, for which the “polyreactivity (PSR sort gate)” value is on record as “high polyreactivity”.

For the sequence “QVQLVESGGGLVQAGGSLRLSCAASGIIFQRNDMGWYRQAPGKERELDANIRDGGITYADSVKGRFTISRDNAKNTVYLQMNSLKPEDTAVYYCARYDTSPGYGDQSSNAAYYYWGQVTQVTVSS”, the “polyreactivity (PSR sort gate)” value is reported as “low polyreactivity”.

For “QVQLVESGGGLVQAGGSLRLSCAASGRTFSRYVMGWYRQAPGKERELVAAISRTGGRTYYADSVKGRFTISRDNAKNTVYLQMNSLKPEDTAVYYCNAGTVLISTYDYWGQGTQVTVSS”, the “polyreactivity (PSR sort gate)” value is “high polyreactivity”.

Consider “QVQLVESGGGLVQAGGSLRLSCAASGSTFIGYAMGWYRQAPGKEWELVAAISWSGGRTYYADSVKGRFTISRDNEKNTVYLQMNSLKPEDTAVYYCAASYYGCSARYDTLGIYEYWGLGTQVTVSS”, for which the “polyreactivity (PSR sort gate)” value is given as “high polyreactivity”.

Regarding “QVQLVESGGGLVQAGGSLRLSCAASGNTFYSNAMGWYRQAPGKERDLVAAISASGTTTYYADSVKGRFTISRDNAKNTVYLQMNSLKPEDTAVYYCAAVAPTRATRREDSWGQGTQVTVSS”, the “polyreactivity (PSR sort gate)” value is listed as “high polyreactivity”.

On to “QVQLVESGGGLVQAGGSLRLSCAASGFTFGNYAMGWYRQAPGKERELVAAITRGGSTYYADSVKGRFTISRDNAKNTVYLQMKSLKPEDTAVYYCAARYFFWFRPSEYYYWGQGTQVTVSS”, for which the “polyreactivity (PSR sort gate)” value was “high polyreactivity”.

Consider “QVQLVESGGGLVQAGGSLRLSCAASGSTFGSYAMGWYRQAPGKERELVAAIRRGGSTTYADSVKGRFTISRDNAKNTVYLQMYSLKPEDTAVYYCAAPELNEGLPLDYWGQGTQVTVSS”, for which the “polyreactivity (PSR sort gate)” value is “low polyreactivity”.

Take “QVQLVESGGGLVQAGGSLRLSCAASGSIFPFYAMGWFRQAPGKERELVAAISWSGGSTYYADSVKGRFTISRDNAKNTVYLQMNSLKPEDTAVYYCNRADGYSFSLNRSDYWGQGTQVTVSS”: the “polyreactivity (PSR sort gate)” value is recorded as “low polyreactivity”.

On to “QVQLVESGGGIVQAGGSLRLSCAASGLIFYNYAMGWYRQAPGKERELVAAITSGGSTYYADSVKGRFTISRDNAKNTVYLQMNSLKPEDTAVYYCAADLTYTVPFDYWGQGTQVTVSS”, for which the “polyreactivity (PSR sort gate)” value was “high polyreactivity”.
